Drawing on publication PMC12049489, this text covers Kd for three substances.

pKd: −log10 of the molar value.

Holding throughout (test): SPR
On the technique in general: Surface plasmon resonance follows binding to a sensor surface in real time, without labels.

Assay [1] concerns the target anti-Aβ hIgG4 YEY (human).
The target of assay [2] is anti-BACE1 hIgG1 M252Y / Q311A / N434Y / Y436I (human).
In assay [3] the target is anti-BACE1 hIgG1 M252Y / Q311I / N434Y / Y436I (human).
Assay [4] has as its target anti-BACE1 hIgG1 M252Y / T307Q / Q311A / N434Y (human).
Assay [5] deals with anti-BACE1 hIgG1 M252Y / V308P / N434Y (human).
Assay [6] concerns the target anti-BACE1 hIgG1 Q5 (M252Y / Q311I / N434Y / Y436I) (human).
For assay [7], the target named is anti-BACE1 hIgG1 Q7 (M252Y / Q311A / N434Y / Y436I) (human).
Assay [8] concerns the target M252F mIgG2a (mouse).
Assay [9] addresses M252Y mIgG2a (mouse).
Assay [10] has as its target M252Y.Q309T mIgG2a (mouse).

What is called pKd is −log10 of the Kd, conventionally taken in molar units. A high value points to a low Kd. In the case of “cynomolgus monkey FcRn (from UniProt Q8SPV9 24-365) (receptor)”, the pKd in assay [1] was 8.05.

In the case of “human neonatal Fc receptor (hFcRn) (from UniProt P55899 24-365; P61769 21-119)”, the negative logarithm of the Kd (pKd) in assay [2] is 8.22; in assay [3], 6.60; in assay [4] it was 6.48; in assay [5], 6.90; in assay [6], 6.60; in assay [7] it was 8.22.

Turning to “mouse FcRn (from UniProt Q61559 22-365) (receptor)”, the results for the pKd in [8], in assay [9] and in assay [10] were 5.48, 6.08 and 6.51, respectively.
